Data published in US20250345467A1, “DENDRIMER FOR THERAPY AND IMAGING” (priority 2018, published 2025).

What was measured:
[1] = test system: DU-145 subcutaneous tumours; assay: Therapeutic study with radionuclide-containing dendrimers, DU-145 subcutaneous tumours; assay type: in vivo, Balb/C nude mice; details: FIG. 20
Description: Healthy male Balb/C nude mice (˜20 g) from 8 weeks old were obtained from the ARC and used for this study. Mice were imported into the animal holding facility and monitored for 1 week prior to the study in order to acclimatise to the environment prior to injection of cells. All animals were provided with free access to food and water before and during the imaging experiments which were approved by the Animal Ethics Committee.
The following compounds were used in the study: • Example 4b • Example 5 • Jevtana® (cabazitaxel) • Comparative example A: a non-radionuclide-containing dendrimer, which is BHALys[Lys]32[α-DGA-Cabazitaxel]32†[ε-PEG˜2100]32‡. […] The actual mean number of PEG˜2100 groups attached to the BHALys[Lys]32 was determined experimentally by ^1H NMR. […]
78 mice were injected with 4×10^6 DU-145 cells in Matrigel into the right flank to induce subcutaneous tumours. Tumour volume and body mass was monitored twice per week before mice with evident tumour growth (approximately […] in volume, tumour volume=½ (length×width^2)) were randomly assigned to groups and injected with compounds according to the schedule outlined in the table below, at day 0, 7 and 14. Following injections, the mice were monitored three times per week for tumour volume and body mass. […]

[2] = Organ biodistribution, clearance and health monitoring in the prostate cancer xenograft study; assay type: in vivo, Balb/C nude mice; details: Zr-89 labelled, mice bearing DU-145 or PC3 xenografts, whole study (9 days)
Procedure: The accumulation of two different dendrimer constructs in two different murine xenograft models of prostate cancer (DU145 and PC3 cell lines) was investigated. The two different constructs were compound 1b and 3 which are pre-conjugated with DFO, which were labelled with 89Zr for subsequent imaging studies. The biodistribution was measured by PET-CT out to 9 days in two different tumour xenografts and then validated by ex vivo gamma scintillation of excised organs at day 9.
Dendrimers were labelled and purified, validated by radioTLC prior to injection into the animals. Imaging was conducted in a cohort of n=4 mice for each cell line and each dendrimer. Standard health of the mice was monitored by score sheet and mouse weight over the complete timeframe of the study.
Healthy male Balb/C nude mice (˜20 g) from 8 weeks old were obtained from the ARC and used for this study. Mice were imported into the animal holding facility and monitored for 1 week prior to the study in order to acclimatise to the environment prior to injection of cells. […]
Mice (n=4 per group) bearing DU-145 or PC3 xenografts were injected with Zr-89 labelled dendrimers (compounds 1b and 3) via tail-vein. […] At 216 hrs post-injection, the organs were removed and signal intensity quantified by ex vivo gamma analysis. Faecal pellets were also measured for activity at this timepoint. […]

[3] = test system: spontaneous gliomas (high grade glioma mouse model); assay: PET-MRI tumour imaging study, glioblastoma; assay type: in vivo, mice; details: Zr-89 radiolabelled, approximately 5 MBq; for % ID/g at 40 hrs: 40 hrs post-injection; for % ID/g at 5 days: 5 days post-injection
Description: The aim of this study was to assess the level of accumulation of example radionuclide-containing dendrimers in mice bearing spontaneous gliomas. This model provides a route to effectively assess the ability to both cross the blood-brain-barrier (BBB) as well as accumulate in tumour tissue.
Gt(ROSA)26So^rtm14(CAG-tdTomato)Hze 20023653 was crossed with Pten^tm2MAK; Rb1^tm2Bm; Trp53^tm1Bm; Tg(GFAP-cre/Esr1*,−lacZ)BSbk^31,44-47 (alleles) and backcrossed six generations to latter mice to generate Gt(ROSA)26Sor^tm14(CAG-tdTomato)Hze; Pten^tm2MAK; Rb1^tm2Bm; Trp53^tm1Bm; Tg(GFAP-cre/Esr1*,−lacZ)BSbk (high grade glioma mouse model; HGG). Mice were maintained on a predominantly FVB/NJ background with contributions from 129/SV and C57Bl6. To induce Cre recombinase and thereby tumor formations, 20 mg/ml Tamoxifen (Sigma-Aldrich) dissolved in corn oil (Sigma-Aldrich) was injected intraperitoneally. Up to 200 mg/kg body weight was administered weekly for 3 consecutive weeks after postnatal day (P) 30 (range P30-44). Animal's health and welfare was monitored up to twice daily and animals were euthanized based on morbidity requirement.
91 μL Zr-89 oxalate in 1 M oxalic acid (Perkin Elmer) was diluted with 78 μL 1 M Na2CO3 to neutralize pH. Dendrimer 1b was dissolved in 0.5 M HEPES (pH 7.5). 33 μL neutralized Zr-89 stock (approximately 15 MBq) was added to the dendrimer (146 μg) to give 100-fold excess of the dendrimer to Zr-89 and labelling was allowed to proceed at room temperature for 1 hour. The sample was then buffer exchanged into phosphate-buffered saline using Zeba Spin Desalting Columns (7 kDa MWCO, Thermo Fisher Scientific). 1 μL sample of the solution was taken and spotted on thin layer chromatography paper (Agilent iTLC-SG Glass microfiber chromatography paper impregnated with silica gel) and run with 50 mM diethylenetriaminepentaacetic acid (DTPA) as the eluent. Control experiments were conducted to monitor the elution behaviour of unbound Zr-89 for quality control. Plates were then imaged on a Bruker In Vivo MS FX Pro imaging system using a radioisotopic phosphor screen. ˜100% chelation of the Zr-89 was observed and so the dendrimer was used directly for the imaging experiments.
Anaesthetized mice, with a cannulated tail vein, were placed in a combined MRI/PET system, comprising a 300 mm bore 7T ClinScan, running Siemens VB17, and removable PET insert containing 3 rings of 16 detector blocks with 15×15 LSO crystals (1.6×1.6×10 mm) per block, at the centre of the magnet bore operating under Siemens Inveon Acquisition Workplace (IAW) (Bruker, Germany). A 23 mm ID mouse head MRI RF coil inside the PET ring was used to acquire mouse head images simultaneously with the PET acquisition.
Mice were injected with approximately 5 MBq of Zr-89 labelled dendrimer 1b and imaged 40 hours and 5 days post-injection. At each imaging point a dose of Gadovist® contrast agent was injected to obtain pre- and post-contrast T1, T2, and dynamic image data. The injection dose at each timepoint was comprised of 50 μl Gadovist® diluted with PBS (1×) to give a total volume of 200 μl. This volume was injected via a catheter inserted into the tail vein in a slow bolus injection. Where collected, dynamic PET data acquisition was performed for 60 min. Prior to injection, fast localizer images and a 3D T1 weighted volumetric interpolated breath-hold examination VIBE sequence was acquired. Dynamic MRI images were acquired with a Gradient echo FLASH sequence, with 3 slices acquired each 2 seconds interval. The PET acquisition and dynamic MRI imaging was started simultaneously, a 2-3 min baseline period acquired and then the solution was injected. Following 15 min of dynamic MRI scanning, the T1 weighted VIBE was repeated, structural T2 weighted spin echo images acquired and a […] T1 weighted VIBE_DIXON sequence acquired to generate a 3D T1 map. […]

Row | Substance | suppression of tumour growth, ranking among groups ([1]; group 4: higher dose, 4b 8 mg/kg (6 MBq) day 0, then Comparative Example A 8 mg/kg days 7 and 14) | suppression of tumour growth ([1]; groups 4 and 7: Lu-177 labelled 4b 8 or 5 mg/kg (6 MBq) day 0, then Comparative Example A days 7 and 14) | adverse health effects [2] | % ID/g at 40 hrs ([3]; Brain (minus tumour)) [% ID/g] | % ID/g at 5 days ([3]; Brain (minus tumour)) [% ID/g] | % ID/g at 40 hrs ([3]; Tumour) [% ID/g] | % ID/g at 5 days ([3]; Tumour) [% ID/g] | % ID/g at 40 hrs ([3]; Vascalature) [% ID/g] | % ID/g at 5 days ([3]; Vascalature) [% ID/g]
1 | BHALys[Lys]32[(α-DGA-CTX)27(α-DOTA)2(ε-PEG2000)32] [Compound 4b] | most effective | effective in suppressing tumour growth | – | – | – | – | – | – | –
2 | BHALys[Lys]32[(α-DGA-CTX)31(α-DFO)1(ε-PEG2000)32] [Compound 3] | – | – | no adverse health effects | – | – | – | – | – | –
3 | BHALys[Lys]32[(α-TDA-DTX)30(α-DFO)2(ε-PEG2000)32] [Compound 1b] | – | – | no adverse health effects | 2.0 | 1.5 | 4.3 | 4.0 | 2.3 | 2.0
